Measurements: patent US20200277355A1

Tests used:
TNF-α = assay: MST, fluorescently labelled TNF-α, TNFR1 titrated, without SN10
TNFR2 [1] = assay: MST, fluorescently labelled TNFR2, TNF-α titrated, without SN10
TNFR2 [2] = assay: MST competition, fluorescently labelled TNFR2, TNF-α titrated in the presence of 100 µM SN10
TNFR1 = assay: MST, fluorescently labelled TNFR1, TNF-α titrated, without SN10

TNFR1 (receptor)
Kd (TNF-α): 0.00284 µM

TNF-α (ligand)
Kd (TNFR2 [1]): 0.328 µM
KD in the presence of 100µM SN10 (TNFR2 [2]): 0.384 µM
Kd (TNFR1): 0.116 µM
